Patent CN113956352A (FUJIAN MEDICAL UNIV UNION HOSPITAL, dated 2022)
Positions count from the first letter of the chain named.

What was measured:
[1] = biological target: SARS-CoV-2 RBD蛋白 (ELISA coating antigen) (SARS-CoV-2, UniProt P0DTC2 319-541); assay: ELISA, plate coated with SARS-CoV-2 RBD, antibody 1 μg/mL, goat anti-human IgG-HRP
SARS-CoV-2 S蛋白 (刺突糖蛋白) = SARS-CoV-2 S蛋白 (刺突糖蛋白) (SARS-CoV-2, UniProt P0DTC2 14-1273); assay: cell-based or functional assay
[2] = biological target: SARS-CoV-2 S-RBD蛋白 (Acrobiosystems, cat.# SPD-C52H3) (SARS-CoV-2, UniProt P0DTC2 319-537); assay: SPR (Biacore 8K), antibody captured on Protein A chip, S-RBD 50-0.78125 nM, 1:1 Langmuir fit

B1: R157 (antibody, V domains shown)
VH: QVQLVQSGAEVKKPGSSVKVSCKASGGTFSSYAINWVRQAPGQGLEWMGGIIPILGIANYAQKFQGRVTITADKSTSTAYMELSSLRSEDTAVYYCAREQGYSGSGANYYFDYWGQGTLVTVSS
VL: QSVLTQPPSVSGAPGQRVTVSCTGSSSNIGAGYDVHWYQQLPGTAPKLLIYGNTNRPSGVPDRFSGSKSGTSASLAITGLQAEDEADYYCQSYDSSLSDVVFGGGTQLTVL
Question: B1 was tested. Which “ELISA值 (OD450)” value [1] did it give?
Answer: 1.14 OD450

B2: R14 (antibody, V domains shown)
VH: B1 VH with A33T, N35S, G50R, Q100I, G104S, A107S, F111M, Y113V, Q116K, L119T
VL: B1 VL with V20I, T54S, D99G, Q107K
Question: How did the “ELISA值 (OD450)” value [1] turn out when B2 was run?
Answer: 1.01 OD450

B3: R29 (antibody, V domains shown)
VH: EVQLLESGGGLVQPGRSLRLSCAASGFTFDDYGIHWVRQAQGKGLEWVSGISWNSGTIGYADSVKGRFTISRDNAKNSLYLQMNSLRAEDTALYYCAKDRGGKLRWYEREEYYFDYWGQGTLVTVSS
VL: SYVLTQPPSVSVAPGQTAKITCGGNDIGRKSVYWYQQKPGQAPILVIYYSSDRPSGIPDRFSGSNSGNTATLTIGRVEAGDEADYYCQVWDSTSDHVIFGGGTKLTVL
Question: How did the “ELISA值 (OD450)” value [1] turn out when B3 was run?
Answer: 1.06 OD450

B4: R44 (antibody, V domains shown)
VH: QVQLVQSGGGLVQPGGSLRLSCAASEITVSSNYMSWVRQAPGKGLEWVSVLYSGGSTDYADSVKGRFTISRDNSKNTLYLQMNSLRAEDTAVYYCAREVYGMDVWGQGTTVTVSS
VL: DIVLTQTPSSLSASVGDRVTITCRASQGISSYLAWYQQKPGKAPKLLIYAASTLQSGVPSRFSGSGSGTDFTLTISSLQPEDFATYYCQELSTYPVTFGQGTKVEIK
Question: How did the “假病毒的抑制率IC50 (Luciferase RLU, Spike假病毒, 293T-ACE2细胞)” value (SARS-CoV-2 S蛋白 (刺突糖蛋白)) turn out when B4 was run?
Answer: 1.6 µg/mL

Question: What about the “ELISA值 (OD450)” value [1] of the same binder?
Answer: 1.17 OD450

Question: What about the Kd [2] of the same binder?
Answer: 205 pM
